Laboratory results from publication PMC4150764, “Structural and functional basis of transcriptional regulation by TetR family protein CprB from S. coelicolor A3(2)” (Nucleic Acids Research, 2014).
Numbering of substitutions follows the chain as printed.

Assays:
CprB [1] = target: T1, CprB (Streptomyces coelicolor A3(2), UniProt Q7AKF2 1-215); assay: EMSA; range given for scbR, kasOA, kasOB together; EMSA: 10 mM Tris-HCl pH 7.8, 50 mM KCl, 1 mM EDTA, 1 mM DTT, 5% glycerol, hemoglobin, poly(dI-dC), 20 C, ~1 nM DNA; ITC: 50 mM phosphate pH 7, 150 mM NaCl, 25 C; conditions: protein: recombinant; chain copies: 4; label: 5'-32P; blunt
T1 sequence: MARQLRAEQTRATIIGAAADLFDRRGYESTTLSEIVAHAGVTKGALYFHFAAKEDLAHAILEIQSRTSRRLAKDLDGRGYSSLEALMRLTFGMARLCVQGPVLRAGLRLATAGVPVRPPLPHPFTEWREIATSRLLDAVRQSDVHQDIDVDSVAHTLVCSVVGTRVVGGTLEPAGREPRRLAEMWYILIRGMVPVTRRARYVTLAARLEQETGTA

CprB [2] = target: T1, CprB; assay: EMSA; EMSA: 10 mM Tris-HCl pH 7.8, 50 mM KCl, 1 mM EDTA, 1 mM DTT, 5% glycerol, hemoglobin, poly(dI-dC), 20 C, ~1 nM DNA; ITC: 50 mM phosphate pH 7, 150 mM NaCl, 25 C; conditions: protein: recombinant, chain copies: 4, blunt
CprB [3] = target: T1, CprB; assay: ITC; n = 0.52 CS per CprB dimer, 25 C; EMSA: 10 mM Tris-HCl pH 7.8, 50 mM KCl, 1 mM EDTA, 1 mM DTT, 5% glycerol, hemoglobin, poly(dI-dC), 20 C, ~1 nM DNA; ITC: 50 mM phosphate pH 7, 150 mM NaCl, 25 C; conditions: protein: recombinant; chain copies: 4; label: 5'-32P (EMSA); none (ITC, crystal); blunt
CprB [4] = target: T1, CprB; assay: EMSA; similar trend to OPB; EMSA: 10 mM Tris-HCl pH 7.8, 50 mM KCl, 1 mM EDTA, 1 mM DTT, 5% glycerol, hemoglobin, poly(dI-dC), 20 C, ~1 nM DNA; ITC: 50 mM phosphate pH 7, 150 mM NaCl, 25 C; conditions: protein: recombinant; chain copies: 4; label: 5'-32P; blunt
[5] = target: the molecule itself; assay: crystal structure; CprB (6 mg/ml) co-crystallised with annealed 22-mer CS DNA, 1:1.2 (dimer of CprB:CS), hanging drop, 22°C, 0.2 M KCl, 0.02 M MgCl2, 0.05 M Tris-HCl pH 7.5, 10% PEG 4000; 3.25 Å
CprB [6] = target: T1, CprB; assay: EMSA; about five-fold weaker than own upstream sequence; EMSA: 10 mM Tris-HCl pH 7.8, 50 mM KCl, 1 mM EDTA, 1 mM DTT, 5% glycerol, hemoglobin, poly(dI-dC), 20 C, ~1 nM DNA; ITC: 50 mM phosphate pH 7, 150 mM NaCl, 25 C; conditions: protein: recombinant; chain copies: 4; label: 5'-32P; blunt, self-complementary
CprB S33A = target: T2, CprB S33A (Streptomyces coelicolor A3(2), UniProt Q7AKF2 1-215, S33A); assay: EMSA; negligible effect; EMSA: 10 mM Tris-HCl pH 7.8, 50 mM KCl, 1 mM EDTA, 1 mM DTT, 5% glycerol, hemoglobin, poly(dI-dC), 20 C, ~1 nM DNA; ITC: 50 mM phosphate pH 7, 150 mM NaCl, 25 C; conditions: protein: recombinant; chain copies: 2; label: 5'-32P (EMSA); none (ITC); blunt
T2 sequence: T1 sequence with S33A

CprB K43A = target: T3, CprB K43A (Streptomyces coelicolor A3(2), UniProt Q7AKF2 1-215, K43A); assay: as above; conditions: protein: recombinant; chain copies: 2; label: 5'-32P (EMSA); none (ITC); blunt
T3 sequence: T1 sequence with K43A

CprB [7] = target: T1, CprB; assay: ITC; two-site model, Kd1, n = 0.26, 25 C; EMSA: 10 mM Tris-HCl pH 7.8, 50 mM KCl, 1 mM EDTA, 1 mM DTT, 5% glycerol, hemoglobin, poly(dI-dC), 20 C, ~1 nM DNA; ITC: 50 mM phosphate pH 7, 150 mM NaCl, 25 C; conditions: protein: recombinant; chain copies: 4; label: 5'-32P (EMSA); none (ITC); blunt

B1: kasOB (dsDNA)
DNA 1: CAAAACAGACTTGTTAGCTGTTT
DNA 2: AAACAGCTAACAAGTCTGTTTTG
For B1, the Kd (CprB [1]) was ~1060 nM.

B2: kasOA (dsDNA)
DNA 1: ACAAACCGGTGTGCTGGTTTGTAAAGTCGTGG
DNA 2: CCACGACTTTACAAACCAGCACACCGGTTTGT
In the case of B2, the Kd (CprB [1]) is reported as ~1060 nM.

B3: CS 22-mer (dsDNA)
DNA 1: ACATACGGGACGCCCCGTTTAT
DNA 2: ATAAACGGGGCGTCCCGTATGT
B3 was tested, and the Kd (CprB [2]; label: 5'-32P (EMSA), none (ITC, crystal)) was ~374 nM and the Kd (CprB [3]) was 200 nM.

B4: cprA upstream 25-mer (-44 to -20 of cprA-ATG) (dsDNA)
DNA 1: AACAGGCACACGGTCTGTTGGTTCT
DNA 2: AGAACCAACAGACCGTGTGCCTGTT
B4: binds (CprB [4]).

B5: TetR(OS) 15-mer (dsDNA)
DNA 1: TCTATCATTGATAGG
DNA 2: CCTATCAATGATAGA
B5: no binding (CprB [2]; label: 5'-32P).

B6: scbR (dsDNA)
DNA 1: GGAACCGGCAATGCGGTTTGTTCGATC
DNA 2: GATCGAACAAACCGCATTGCCGGTTCC
With B6 the Kd (CprB [1]) was ~1060 nM.

B7: CprB (coelicolor pigment regulator protein B) from S. coelicolor A3(2) (natural protein, UniProt O66122 1-215, looked up)
chain: T1 sequence
modifications: intermonomer disulfide linkage between cysteine residues at position 159
notes: CprB, TetR family gamma-butyrolactone receptor, Streptomyces coelicolor A3(2); the cprB gene encodes a 215 amino acid protein, expressed from pET26b(+); Crystallised with the 22-mer consensus DNA (CS); two homodimers in each asymmetric unit; No tag is mentioned; purification was by cation exchange; also called native CprB; source: E. coli BL21(DE3)pLysS, purified (SP Sepharose)
In the case of B7, the “stoichiometry N” value [5] is reported as 2.

B8: QacR(OS) 28-mer (dsDNA)
DNA 1: CTTATAGACCGATCGATCGGTCTATAAG
DNA 2: CTTATAGACCGATCGATCGGTCTATAAG
B8 showed a Kd (CprB [6]) of ~1500 nM.

B9: cprB1 59-mer (-58 to 0 of cprB-ATG) (dsDNA)
DNA 1: GCCGGGGGTAAAGGCAGGCGGCACGGTCTGTTGAGTTCCAGCCCGGGAGAATCCAGCCG
DNA 2: CGGCTGGATTCTCCCGGGCTGGAACTCAACAGACCGTGCCGCCTGCCTTTACCCCCGGC
B9 was tested, and the Kd (CprB [2]; label: 5'-32P) was ~400 nM.

B10: OPB 27-mer (-47 to -21 of cprB-ATG) (dsDNA)
DNA 1: AGGCAGGCGGCACGGTCTGTTGAGTTC
DNA 2: GAACTCAACAGACCGTGCCGCCTGCCT
B10 was tested, and the binding result (CprB S33A) was “binds”, the binding result (CprB K43A) was “binds” and the Kd (CprB [2]; label: 5'-32P (EMSA), none (ITC)) was ~274 nM. The Kd (CprB [7]) was 330 nM.
